Experimental data reported in article PMC6101539 (Nucleic Acids Research, 2018).

Columns and labels:
RarA = molecular target: T1, RarA (Bacillus subtilis, UniProt O34528 1-421); experiment: EMSA
T1 sequence: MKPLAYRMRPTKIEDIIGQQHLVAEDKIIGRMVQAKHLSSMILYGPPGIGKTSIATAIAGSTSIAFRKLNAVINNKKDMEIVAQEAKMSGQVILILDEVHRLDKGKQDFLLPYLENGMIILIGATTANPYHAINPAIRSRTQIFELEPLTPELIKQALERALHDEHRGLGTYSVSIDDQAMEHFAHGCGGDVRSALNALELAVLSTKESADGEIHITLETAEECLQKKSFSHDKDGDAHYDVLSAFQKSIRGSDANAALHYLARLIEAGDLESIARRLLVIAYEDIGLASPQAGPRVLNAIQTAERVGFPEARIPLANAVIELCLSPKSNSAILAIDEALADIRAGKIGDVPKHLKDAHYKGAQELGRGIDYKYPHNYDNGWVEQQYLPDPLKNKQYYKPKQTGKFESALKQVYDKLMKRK

[1] = molecular target: T2, Bacillus subtilis RarA (replication associated recombination protein A) (B. subtilis, UniProt O34528 1-421); experiment: native gel or EMSA
T2 sequence (looked up): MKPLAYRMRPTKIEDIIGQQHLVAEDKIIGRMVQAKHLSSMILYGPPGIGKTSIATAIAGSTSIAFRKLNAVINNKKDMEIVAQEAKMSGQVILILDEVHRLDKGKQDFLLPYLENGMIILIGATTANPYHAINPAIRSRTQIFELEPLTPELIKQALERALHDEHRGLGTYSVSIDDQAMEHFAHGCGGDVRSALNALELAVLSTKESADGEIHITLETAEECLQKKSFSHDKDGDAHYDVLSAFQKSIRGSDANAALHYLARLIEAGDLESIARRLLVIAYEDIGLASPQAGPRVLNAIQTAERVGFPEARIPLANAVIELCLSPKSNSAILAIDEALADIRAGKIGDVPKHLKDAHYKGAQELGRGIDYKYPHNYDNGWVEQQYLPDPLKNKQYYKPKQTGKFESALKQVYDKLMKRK

[2] = molecular target: T3, Bacillus subtilis RarA K51A (Walker A motif mutant) (B. subtilis, UniProt O34528 1-421, K51A); experiment: native gel or EMSA
T3 sequence (looked up): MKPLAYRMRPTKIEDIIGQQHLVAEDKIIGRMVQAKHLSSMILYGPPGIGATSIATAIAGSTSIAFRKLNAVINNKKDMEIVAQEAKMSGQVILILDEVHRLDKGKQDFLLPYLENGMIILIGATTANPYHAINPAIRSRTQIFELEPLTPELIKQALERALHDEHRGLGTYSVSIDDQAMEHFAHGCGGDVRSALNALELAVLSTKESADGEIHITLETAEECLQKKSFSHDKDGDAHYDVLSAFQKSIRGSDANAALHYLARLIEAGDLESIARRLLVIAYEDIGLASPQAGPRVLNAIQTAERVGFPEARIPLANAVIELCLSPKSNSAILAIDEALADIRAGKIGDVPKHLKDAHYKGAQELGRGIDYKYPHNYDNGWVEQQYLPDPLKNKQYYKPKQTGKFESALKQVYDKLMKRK

B1: dsDNA (100U/100D) (dsDNA)
DNA 1: GGGCGAATTGGGCCCGACGTCGCATGCTCCTCTAGACTCGAGGAATTCGGTACCCCGGGTTCGAAATCGATAAGCTTACAGTCTCCATTTAAAGGACAAG
DNA 2: CTTGTCCTTTAAATGGAGACTGTAAGCTTATCGATTTCGAACCCGGGGTACCGAATTCCTCGAGTCTAGAGGAGCATGCGACGTCGGGCCCAATTCGCCC
- Kd (RarA): ~37 nM

B2: Bacillus subtilis SsbA (single stranded binding protein A) (natural protein, B. subtilis, UniProt P37455 1-172, looked up)
chain: MLNRVVLVGRLTKDPELRYTPNGAAVATFTLAVNRTFTNQSGEREADFINCVTWRRQAENVANFLKKGSLAGVDGRLQTRNYENQQGQRVFVTEVQAESVQFLEPKNGGGSGSGGYNEGNSGGGQYFGGGQNDNPFGGNQNNQRRNQGNSFNDDPFANDGKPIDISDDDLPF
- binding result [1]: binds
- binding result [2]: binds

B3: SsbBA chimera (SsbB with the last 9 terminal acidic residues of SsbA) (other, B. subtilis, UniProt C0SPB6 1-113, looked up)
chain: MFNQVMLVGRLTKDPDLRYTSAGAAVAHVTLAVNRSFKNASGEIEADYVNCTLWRKTAENTALYCQKGSLVGVSGRIQTRSYENEEGVNVYVTEVLADTVRFMDPKPREKAADDISDDDLPF
- binding result [1]: binds
